Here are results for five molecules from US20260022170A1 (ADAPTAM THERAPEUTICS S L, published 2026).

One experiment deals with Siglec-3 (UniProt P20138 18-259, limits assumed). The experiment can be described thus: BLI, antibody in Fab format. The protocol: (§1) BLI experiments were performed to assess binding of the generated anti-Siglec-9 antibodies to Siglec family members Siglec-3, Siglec-6, Siglec-7, Siglec-8, Siglec-9, and Siglec-10. The antibodies were tested in Fab format at 250 nM.
A further experiment concerns the target Siglec-8 (UniProt Q9NYZ4 17-363, limits assumed). Briefly: BLI, antibody in Fab format. The protocol:
as §1
(Biolayer interferometry detects binding as a change in optical thickness at a sensor tip.)

For a further experiment, the target named is Siglec-6 (UniProt O43699 27-347, limits assumed). Briefly: BLI, antibody in Fab format. The method, then: as §1
Chain of Siglec-6 (O43699 27-347 limits assumed): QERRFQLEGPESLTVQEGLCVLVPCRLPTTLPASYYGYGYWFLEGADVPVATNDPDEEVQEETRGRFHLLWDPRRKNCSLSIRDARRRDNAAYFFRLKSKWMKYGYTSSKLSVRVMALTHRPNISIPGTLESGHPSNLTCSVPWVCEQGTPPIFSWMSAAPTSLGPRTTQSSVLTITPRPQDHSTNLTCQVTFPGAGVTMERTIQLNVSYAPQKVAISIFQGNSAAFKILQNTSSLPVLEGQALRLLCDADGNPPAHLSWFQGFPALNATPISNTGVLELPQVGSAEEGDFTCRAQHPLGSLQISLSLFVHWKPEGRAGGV
Another experiment deals with T1, Siglec-10 (UniProt Q96LC7 17-546, limits assumed).
T1 sequence (looked up): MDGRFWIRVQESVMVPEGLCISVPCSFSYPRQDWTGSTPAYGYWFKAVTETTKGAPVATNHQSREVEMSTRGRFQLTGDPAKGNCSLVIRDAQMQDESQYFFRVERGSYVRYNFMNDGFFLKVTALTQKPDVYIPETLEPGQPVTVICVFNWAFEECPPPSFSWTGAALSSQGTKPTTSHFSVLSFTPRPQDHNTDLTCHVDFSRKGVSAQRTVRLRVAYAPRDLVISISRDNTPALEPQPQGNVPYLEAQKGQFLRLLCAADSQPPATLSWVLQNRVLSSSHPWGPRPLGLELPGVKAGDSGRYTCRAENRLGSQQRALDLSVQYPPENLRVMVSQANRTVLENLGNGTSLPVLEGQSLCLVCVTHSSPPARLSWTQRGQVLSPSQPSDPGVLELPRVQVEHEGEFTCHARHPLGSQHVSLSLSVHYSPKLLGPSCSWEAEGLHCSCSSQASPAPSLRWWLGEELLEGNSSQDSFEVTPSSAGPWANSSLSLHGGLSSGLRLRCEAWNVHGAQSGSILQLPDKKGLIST
The experiment can be described thus: BLI, antibody in Fab format. The protocol: as §1

A further experiment has as its target Siglec-7 (BLI) (UniProt Q9Y286 19-353, limits assumed). The experiment can be described thus: BLI, antibody in Fab format. The protocol: as §1
In experiment [1] the target is T2, human Siglec-9 protein (recombinant; construct not stated) (human, UniProt Q9Y336 18-344, limits assumed).
T2 construct: also called recombinant Siglec-9
T2 sequence (Q9Y336 18-344 limits assumed): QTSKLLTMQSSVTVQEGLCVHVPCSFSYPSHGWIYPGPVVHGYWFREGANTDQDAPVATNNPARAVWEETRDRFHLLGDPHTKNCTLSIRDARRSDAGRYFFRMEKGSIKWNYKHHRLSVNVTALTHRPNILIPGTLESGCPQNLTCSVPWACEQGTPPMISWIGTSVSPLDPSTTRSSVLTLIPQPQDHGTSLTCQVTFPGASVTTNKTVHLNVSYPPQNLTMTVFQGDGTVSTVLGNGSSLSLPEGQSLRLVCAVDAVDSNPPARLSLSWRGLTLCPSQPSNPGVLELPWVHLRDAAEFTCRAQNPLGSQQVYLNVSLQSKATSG
The experiment can be described thus: BLI, antibody in Fab format at 250 nM. The protocol: as §1

The target of the next experiment is T3, ectodomain of Siglec-7 (UniProt Q9Y286 19-353, limits assumed).
T3 construct: extracellular domain
T3 sequence (Q9Y286 19-353 limits assumed): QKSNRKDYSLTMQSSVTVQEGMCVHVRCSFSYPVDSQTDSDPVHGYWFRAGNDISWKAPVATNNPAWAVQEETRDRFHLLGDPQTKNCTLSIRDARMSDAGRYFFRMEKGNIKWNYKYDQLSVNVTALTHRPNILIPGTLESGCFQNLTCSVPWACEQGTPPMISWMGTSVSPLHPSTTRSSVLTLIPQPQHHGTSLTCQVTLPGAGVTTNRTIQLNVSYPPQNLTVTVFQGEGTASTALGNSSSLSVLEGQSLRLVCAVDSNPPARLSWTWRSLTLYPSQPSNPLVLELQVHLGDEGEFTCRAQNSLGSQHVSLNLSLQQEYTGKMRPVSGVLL
The experiment can be described thus: ELISA on coated ectodomains. The method, then:
(§2) Next, the binding of anti-Siglec-9 monoclonal antibodies ED2D5, C1B613, BC3G5, and DH1A11 to the ectodomains of Siglec-9, Siglec-7, and a control was assessed using ELISA. An anti-Siglec-7 antibody control and isotype control were utilized. […] Antibody clones huCB6B3, mAbA, 68D4, and Tf73 also produced similar EC50 values.
(§3) To perform the ELISA experiments, 96-well plates were coated with recombinant Siglec-9 (SinoBiological, 30109-H03H) (100 μL) at 2 μg/mL in carbonate/bicarbonate buffer pH 9.6 overnight at 4° C., and washed with 250 μL of PBST (PBS, 0.1% Tween-20). Plates were blocked with blocking buffer (3% BSA in PBS) for 1 hour at room temperature, washed, and 100 μL of serially diluted anti-Siglec-9 antibodies-test antibodies, benchmarks, or control-starting at 66.64 nM (4-fold serial dilutions in PBST with 1% w/v non-fat milk), were added for 2 hours at RT. The plates were washed and incubated at room temperature with an anti-mouse IgG HRP detection antibody (1:5000, 1-hour, Anti-mouse IgG-HRP), followed by three washes of 250 μL of PBST, and two more with 400 μL of PBS, before the addition of 100 μL of TMB (Thermo Scientific) for 2-6 minutes. The reaction was stopped with 50 μL of Stop Solution (Thermo Scientific). The OD was measured at 450 nm in a multimode plate reader (Victor Nivo, PerkinElmer). OD values were plotted against antibody concentration, and data were analyzed using GraphPad Prism software.
On the technique in general: ELISA stands for enzyme-linked immunosorbent assay.

For experiment [2], the target named is T4, recombinant Siglec-9 (SinoBiological, 30109-H03H) (human, UniProt Q9Y336 18-348).
T4 construct: also called ectodomain of Siglec-9; recombinant human Siglec-9 protein
T4 sequence (Q9Y336 18-348 limits assumed): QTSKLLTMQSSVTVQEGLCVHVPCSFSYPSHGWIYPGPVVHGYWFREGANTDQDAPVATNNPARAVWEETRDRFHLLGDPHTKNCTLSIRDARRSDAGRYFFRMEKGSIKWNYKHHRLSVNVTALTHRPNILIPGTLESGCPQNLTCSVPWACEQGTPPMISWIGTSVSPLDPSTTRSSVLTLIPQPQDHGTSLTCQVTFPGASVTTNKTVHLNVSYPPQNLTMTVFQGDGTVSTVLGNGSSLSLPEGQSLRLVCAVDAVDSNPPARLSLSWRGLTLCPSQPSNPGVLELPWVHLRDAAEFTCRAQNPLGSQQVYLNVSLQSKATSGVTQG
Briefly: ELISA on coated ectodomains. The method, then:
as §2, §3

The target of experiment [3] is T2, human Siglec-9 protein (recombinant; …). Briefly: ELISA on recombinant Siglec-9. The protocol: as §2
as §3, with “The reaction was stopped with 50 μL of Stop Solution (Thermo Scientific).” left out

Experiment [4] shares this target. Briefly: ELISA, human Siglec-9 protein coated at 2 µg/mL, antibody titrated 0.4 pM to 400 nM. The protocol: The binding of the different IgG CB6B3 antibodies was analyzed via ELISA using human Siglec-9 protein as immobilized antigen (2 μg/mL). The different antibodies were titrated from 0.4 pM to 400 nM (FIG. 9). Human Siglec-9 protein was diluted in PBS pH 7.4 and coated overnight at 4° C. Remaining binding sites were blocked with PBS, 2% skimmed milk power (MPBS) for 2 hours. Bound murine IgG CB6B3 antibody was detected with an HRP-conjugated anti-mouse Fc secondary antibody (Sigma Aldrich A554; 1:5,000 dilution). All antibodies were diluted in MPBS. Incubation times were 1 hour each. TMB/H2O2 was used as substrate. […] Thus, the humanised antibodies retained antigen specificity and bound with similar potency to purified antigen in ELISA.

Chain of Siglec-8 (Q9NYZ4 17-363 limits assumed): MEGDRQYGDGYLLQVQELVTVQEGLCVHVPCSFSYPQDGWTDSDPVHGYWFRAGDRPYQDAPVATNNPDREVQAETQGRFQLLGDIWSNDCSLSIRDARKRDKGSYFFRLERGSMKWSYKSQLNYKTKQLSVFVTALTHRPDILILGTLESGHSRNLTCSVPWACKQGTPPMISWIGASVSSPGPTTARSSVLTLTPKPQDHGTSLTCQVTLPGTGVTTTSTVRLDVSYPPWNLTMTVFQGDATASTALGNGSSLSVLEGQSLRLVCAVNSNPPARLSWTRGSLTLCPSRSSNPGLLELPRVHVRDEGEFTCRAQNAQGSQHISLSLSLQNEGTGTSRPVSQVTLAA
Chain of Siglec-7 (BLI) (Q9Y286 19-353 limits assumed): as the sequence (Q9Y286 19-353 limits assumed) above
Chain of Siglec-3 (P20138 18-259 limits assumed): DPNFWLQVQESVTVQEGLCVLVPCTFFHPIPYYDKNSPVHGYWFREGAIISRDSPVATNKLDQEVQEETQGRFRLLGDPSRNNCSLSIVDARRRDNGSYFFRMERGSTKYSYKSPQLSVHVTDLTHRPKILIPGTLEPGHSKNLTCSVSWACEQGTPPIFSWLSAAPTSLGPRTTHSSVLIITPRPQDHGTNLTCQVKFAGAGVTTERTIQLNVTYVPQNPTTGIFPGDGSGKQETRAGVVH

B1: ED2D5 in Fab format (Fab, V domains shown)
VH: EVQLVESGGGLVKPGGSLKLSCAASGFTFSDYYMYWVRQTPEKRLEWVATISDGGSDTYYPDNMKGRFTISRDNAKNNLYLQMSSLKSEDTAMYYCTRDPDYDDGRFAYWGQGTLVTVSA
VL: DIVMTQSHKFMSTSVGDRVSITCKASQDVGTVVAWYQQKSGQSPKLLIYWSSTRHTGVPDRFTGSGSGTDFTLTISNVQSEDLADYFCQQYIDYPLSFGAGTKLELK
notes: Tested in Fab format in BLI
In the case of B1, the binding result with Siglec-3 is “no binding (tested: 250 nM)”; with Siglec-8 it was “no binding (tested: 250 nM)”; with Siglec-6, “no binding (tested: 250 nM)”; with Siglec-10 it was “no binding (tested: 250 nM)”; in the experiment with Siglec-7 (BLI), “no binding (tested: 250 nM)”; in [1], “binds”.

B2: anti-Siglec-9 monoclonal antibody clone ED2D5 (antibody, V domains shown)
VH: B1 VH
VL: B1 VL
notes: Mouse hybridoma monoclonal antibody
Consider B2, for which the figures for the binding result (with ectodomain of Siglec-7; in experiment [2]) were “no binding” and “binds”, respectively.

B3: anti-Siglec-9 monoclonal antibody clone CB6B3 (parental mouse antibody) (antibody, V domains shown)
VH: EVQLQQSGAEVVRPGALVKLSCKAAGFNIKDYFIHWVKQRPEQGLEWIGLIDPENDNTMYDPRFQVKASLTADTSSNTAYLQLSRLTSEDAAVYYCASTVVARSFDYWGQGTTLTVSS
VL: SIVMTQTPKFLLVSAGDRVTITCKASQSVSNDVAWYQQKSGQSPKLLIYYTSNRYTGVPDRFTGSGYGTDFTFTISTVQAEDLAVYFCQQDFRSPFTFGAGTKLELK
notes: Mouse hybridoma IgG; also called moIgG CB6B3; mouse IgG CB6B3
For B3, the binding result was “no binding” with ectodomain of Siglec-7, “binds” in experiment [2] and “binds” in experiment [3].

B4: chimeric IgG1 CB6B3 (cIgG CB6B3) (antibody, V domains shown)
VH: B3 VH
VL: B3 VL
notes: Chimeric IgG1 of CB6B3 made in HEK293-6E cells; also called cIgG CB6Bb
With B4, the binding result in experiment [4] is listed as “binds”.

B5: CB6B3 in Fab format (Fab, V domains shown)
VH: B3 VH
VL: B3 VL
notes: Tested in Fab format in BLI; printed as 'C1B613', read as CB6B3; also called C1B613
For the molecule B5, the binding result with Siglec-3, in the experiment with Siglec-8, with Siglec-6, with Siglec-10 and with Siglec-7 (BLI) was “no binding (tested: 250 nM)” in each case.
